T1: bovine thymus-derived HMGB1 (bovine, UniProt P10103 2-215)
T1 construct: Bought protein from tissue
T1 sequence (looked up): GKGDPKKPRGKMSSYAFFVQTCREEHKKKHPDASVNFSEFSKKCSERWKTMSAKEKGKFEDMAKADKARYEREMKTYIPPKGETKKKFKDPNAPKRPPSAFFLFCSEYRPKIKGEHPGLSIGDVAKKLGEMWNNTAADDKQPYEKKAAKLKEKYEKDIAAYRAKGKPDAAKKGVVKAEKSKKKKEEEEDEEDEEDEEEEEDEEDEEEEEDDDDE

B1: #10-22 chimeric antibody (H chain) site substitution variant A94R (antibody, human IgG1, lambda, V domains shown)
VH: AVQLVESGGGLVQPKESLKISCAASGFTFSNAAMYWVRQAPGKGLEWVARIRTKPNNYATYYADSVKGRFTISRDDSKSMVYLQMDNLKTEDTAMYYCTRPRRTEGIVSSGVDYWGQGVMVTVSS
VL: YELTQPPSVSVSPGQTASITCSGDELPKRYAYWYQQKPGQSIVRVIYKDSERPSGIPERFSGSSSGTTATLTISGTQAEDEADYYCHSTYSDDKLPVFGGGTKLTVLG
notes: Variant H chain co-expressed with EV007156L in CHO-K1 cells
B2: A1E (antibody, human IgG1, lambda)
heavy: not shown
light: YELTQPPSVSVSPGQTASITCSGDELPKRYAYWYQQKPGQSIVRVIYKDSERPSGIPERFSGSSSGTTATLTISGTQAEDEADYYCHSTYSDDKLPVFGGGTKLTVLGQPKAAPSVTLFPPSSEELQANKATLVCLISDFYPGAVTVAWKADSSPVKAGVETTTPSKQSNNKYAASSYLSLTPEQWKSHRSYSCQVTHEGSTVEKTVAPTECS
notes: co-expressed with EV007156L in CHO-K1 cells; also called #10-22 chimeric antibody (H chain) site substitution variant A1E; copies: 2 + 2
B3: D82aN (antibody, human IgG1, lambda, V domains shown)
VH: AVQLVESGGGLVQPKESLKISCAASGFTFSNAAMYWVRQAPGKGLEWVARIRTKPNNYATYYADSVKGRFTISRDDSKSMVYLQMNNLKTEDTAMYYCTAPRRTEGIVSSGVDYWGQGVMVTVSS
VL: YELTQPPSVSVSPGQTASITCSGDELPKRYAYWYQQKPGQSIVRVIYKDSERPSGIPERFSGSSSGTTATLTISGTQAEDEADYYCHSTYSDDKLPVFGGGTKLTVLG
notes: co-expressed with EV007156L in CHO-K1 cells; also called #10-22 chimeric antibody (H chain) site substitution variant D82aN; copies: 2 + 2
B4: E16G (antibody, human IgG1, lambda)
heavy: not shown
light: YELTQPPSVSVSPGQTASITCSGDELPKRYAYWYQQKPGQSIVRVIYKDSERPSGIPERFSGSSSGTTATLTISGTQAEDEADYYCHSTYSDDKLPVFGGGTKLTVLGQPKAAPSVTLFPPSSEELQANKATLVCLISDFYPGAVTVAWKADSSPVKAGVETTTPSKQSNNKYAASSYLSLTPEQWKSHRSYSCQVTHEGSTVEKTVAPTECS
notes: co-expressed with EV007156L in CHO-K1 cells; also called #10-22 chimeric antibody (H chain) site substitution variant E16G; copies: 2 + 2
B5: I20L (antibody, human IgG1, lambda)
heavy: not shown
light: YELTQPPSVSVSPGQTASITCSGDELPKRYAYWYQQKPGQSIVRVIYKDSERPSGIPERFSGSSSGTTATLTISGTQAEDEADYYCHSTYSDDKLPVFGGGTKLTVLGQPKAAPSVTLFPPSSEELQANKATLVCLISDFYPGAVTVAWKADSSPVKAGVETTTPSKQSNNKYAASSYLSLTPEQWKSHRSYSCQVTHEGSTVEKTVAPTECS
notes: co-expressed with EV007156L in CHO-K1 cells; also called #10-22 chimeric antibody (H chain) site substitution variant I20L; copies: 2 + 2
B6: K15G (antibody, human IgG1, lambda)
heavy: not shown
light: YELTQPPSVSVSPGQTASITCSGDELPKRYAYWYQQKPGQSIVRVIYKDSERPSGIPERFSGSSSGTTATLTISGTQAEDEADYYCHSTYSDDKLPVFGGGTKLTVLGQPKAAPSVTLFPPSSEELQANKATLVCLISDFYPGAVTVAWKADSSPVKAGVETTTPSKQSNNKYAASSYLSLTPEQWKSHRSYSCQVTHEGSTVEKTVAPTECS
notes: co-expressed with EV007156L in CHO-K1 cells; also called #10-22 chimeric antibody (H chain) site substitution variant K15G; copies: 2 + 2
B7: M77T (antibody, human IgG1, lambda, V domains shown)
VH: AVQLVESGGGLVQPKESLKISCAASGFTFSNAAMYWVRQAPGKGLEWVARIRTKPNNYATYYADSVKGRFTISRDDSKSTVYLQMDNLKTEDTAMYYCTAPRRTEGIVSSGVDYWGQGVMVTVSS
VL: YELTQPPSVSVSPGQTASITCSGDELPKRYAYWYQQKPGQSIVRVIYKDSERPSGIPERFSGSSSGTTATLTISGTQAEDEADYYCHSTYSDDKLPVFGGGTKLTVLG
notes: co-expressed with EV007156L in CHO-K1 cells; also called #10-22 chimeric antibody (H chain) site substitution variant M77T; copies: 2 + 2
B8: M89V (antibody, human IgG1, lambda, V domains shown)
VH: AVQLVESGGGLVQPKESLKISCAASGFTFSNAAMYWVRQAPGKGLEWVARIRTKPNNYATYYADSVKGRFTISRDDSKSMVYLQMDNLKTEDTAVYYCTAPRRTEGIVSSGVDYWGQGVMVTVSS
VL: YELTQPPSVSVSPGQTASITCSGDELPKRYAYWYQQKPGQSIVRVIYKDSERPSGIPERFSGSSSGTTATLTISGTQAEDEADYYCHSTYSDDKLPVFGGGTKLTVLG
notes: co-expressed with EV007156L in CHO-K1 cells; also called #10-22 chimeric antibody (H chain) site substitution variant M89V; copies: 2 + 2
B9: M108L (antibody, human IgG1, lambda)
heavy: not shown
light: YELTQPPSVSVSPGQTASITCSGDELPKRYAYWYQQKPGQSIVRVIYKDSERPSGIPERFSGSSSGTTATLTISGTQAEDEADYYCHSTYSDDKLPVFGGGTKLTVLGQPKAAPSVTLFPPSSEELQANKATLVCLISDFYPGAVTVAWKADSSPVKAGVETTTPSKQSNNKYAASSYLSLTPEQWKSHRSYSCQVTHEGSTVEKTVAPTECS
notes: co-expressed with EV007156L in CHO-K1 cells; also called #10-22 chimeric antibody (H chain) site substitution variant M108L; copies: 2 + 2
B10: N82bS (antibody, human IgG1, lambda, V domains shown)
VH: AVQLVESGGGLVQPKESLKISCAASGFTFSNAAMYWVRQAPGKGLEWVARIRTKPNNYATYYADSVKGRFTISRDDSKSMVYLQMDSLKTEDTAMYYCTAPRRTEGIVSSGVDYWGQGVMVTVSS
VL: YELTQPPSVSVSPGQTASITCSGDELPKRYAYWYQQKPGQSIVRVIYKDSERPSGIPERFSGSSSGTTATLTISGTQAEDEADYYCHSTYSDDKLPVFGGGTKLTVLG
notes: co-expressed with EV007156L in CHO-K1 cells; also called #10-22 chimeric antibody (H chain) site substitution variant N82bS; copies: 2 + 2
B11: P41S (antibody, human IgG1, lambda, V domains shown)
VH: AVQLVESGGGLVQPKESLKISCAASGFTFSNAAMYWVRQASGKGLEWVARIRTKPNNYATYYADSVKGRFTISRDDSKSMVYLQMDNLKTEDTAMYYCTAPRRTEGIVSSGVDYWGQGVMVTVSS
VL: YELTQPPSVSVSPGQTASITCSGDELPKRYAYWYQQKPGQSIVRVIYKDSERPSGIPERFSGSSSGTTATLTISGTQAEDEADYYCHSTYSDDKLPVFGGGTKLTVLG
notes: co-expressed with EV007156L in CHO-K1 cells; also called #10-22 chimeric antibody (H chain) site substitution variant P41S; copies: 2 + 2
B12: S76N (antibody, human IgG1, lambda, V domains shown)
VH: AVQLVESGGGLVQPKESLKISCAASGFTFSNAAMYWVRQAPGKGLEWVARIRTKPNNYATYYADSVKGRFTISRDDSKNMVYLQMDNLKTEDTAMYYCTAPRRTEGIVSSGVDYWGQGVMVTVSS
VL: YELTQPPSVSVSPGQTASITCSGDELPKRYAYWYQQKPGQSIVRVIYKDSERPSGIPERFSGSSSGTTATLTISGTQAEDEADYYCHSTYSDDKLPVFGGGTKLTVLG
notes: co-expressed with EV007156L in CHO-K1 cells; also called #10-22 chimeric antibody (H chain) site substitution variant S76N; copies: 2 + 2
B13: V78A (antibody, human IgG1, lambda, V domains shown)
VH: AVQLVESGGGLVQPKESLKISCAASGFTFSNAAMYWVRQAPGKGLEWVARIRTKPNNYATYYADSVKGRFTISRDDSKSMAYLQMDNLKTEDTAMYYCTAPRRTEGIVSSGVDYWGQGVMVTVSS
VL: YELTQPPSVSVSPGQTASITCSGDELPKRYAYWYQQKPGQSIVRVIYKDSERPSGIPERFSGSSSGTTATLTISGTQAEDEADYYCHSTYSDDKLPVFGGGTKLTVLG
notes: co-expressed with EV007156L in CHO-K1 cells; also called #10-22 chimeric antibody (H chain) site substitution variant V78A; copies: 2 + 2
B14: V107T (antibody, human IgG1, lambda)
heavy: not shown
light: YELTQPPSVSVSPGQTASITCSGDELPKRYAYWYQQKPGQSIVRVIYKDSERPSGIPERFSGSSSGTTATLTISGTQAEDEADYYCHSTYSDDKLPVFGGGTKLTVLGQPKAAPSVTLFPPSSEELQANKATLVCLISDFYPGAVTVAWKADSSPVKAGVETTTPSKQSNNKYAASSYLSLTPEQWKSHRSYSCQVTHEGSTVEKTVAPTECS
notes: co-expressed with EV007156L in CHO-K1 cells; also called #10-22 chimeric antibody (H chain) site substitution variant V107T; copies: 2 + 2
B15: D41G (antibody, human IgG1, lambda, V domains shown)
VH: AVQLVESGGGLVQPKESLKISCAASGFTFSNAAMYWVRQAPGKGLEWVARIRTKPNNYATYYADSVKGRFTISRDDSKSMVYLQMDNLKTEDTAMYYCTAPRRTEGIVSSGVDYWGQGVMVTVSS
VL: YELIQPPSASVTLGNTVSITCSGDELPKRYAYWYQQKPGKSIVRVIYKDSERPSGISDRFSGSSSGTTATLTIRDTQAEDEADYYCHSTYSDDKLPVFGGGTKLTVLG
notes: co-expressed with the #10-22 chimeric antibody H chain in CHO-K1 cells; also called #10-22 chimeric antibody (L chain) site substitution variant D41G
B16: D60E (antibody, human IgG1, lambda, V domains shown)
VH: AVQLVESGGGLVQPKESLKISCAASGFTFSNAAMYWVRQAPGKGLEWVARIRTKPNNYATYYADSVKGRFTISRDDSKSMVYLQMDNLKTEDTAMYYCTAPRRTEGIVSSGVDYWGQGVMVTVSS
VL: YELIQPPSASVTLGNTVSITCSGDELPKRYAYWYQQKPDKSIVRVIYKDSERPSGISERFSGSSSGTTATLTIRDTQAEDEADYYCHSTYSDDKLPVFGGGTKLTVLG
notes: co-expressed with the #10-22 chimeric antibody H chain in CHO-K1 cells; also called #10-22 chimeric antibody (L chain) site substitution variant D60E

target: T1, bovine thymus-derived HMGB1; assay: ELISA on HMGB1-immobilized immunoplate, antibodies adjusted to an equal concentration; OD as % of EV007156 (L) + #10-22 chimera (H) (source of the HMGB1 not named for this figure)

Binding result, binds:
B1
B2
B3
B4
B5
B6
B7
B8
B9
B10
B11
B12
B13
B14

target: T1, bovine thymus-derived HMGB1; assay: ELISA on HMGB1-immobilized immunoplate, antibodies adjusted to an equal concentration; OD as % of #10-22 chimera (source of the HMGB1 not named for this figure)

Binding result, binds:
B15
B16

— patent publication US20150361164A1 (EVEC, published 2015)
